# Results from US20230140293A1.
# Tests used:
# [1] = molecular target: CH505 TF chimeric SOSIP.III trimer (CH505TFchim.6R.SOSIP.664V4.1) (HIV-1 (CH505 gp120 / BG505 gp41 chimera)); assay: negative stain EM; 1 to 1 ratio of CH103 and gp140
# [2] = molecular target: CH0505TF.G458Y Env, pseudotyped virus produced in 293S GnTI- cells (HIV-1); assay: cell-based or functional assay
# [3] = molecular target: CH0505TF.gly4.G458Y Env, pseudotyped virus produced in 293S GnTI- cells (HIV-1); assay: cell-based or functional assay
# [4] = molecular target: HIV-1 Env 426c.TM (N276D.N460D.N463D), Env-pseudotyped virus produced in 293S GnTI- cells (Man5-enriched) (HIV-1 clade C strain 426c); assay: cell-based or functional assay
# [5] = molecular target: CH0505TF G458R Env, pseudotyped virus produced in 293S GnTI- cells (HIV-1); assay: cell-based or functional assay
# [6] = molecular target: CH0505TF.gly4 Env, pseudotyped virus produced in 293S GnTI- cells (HIV-1); assay: cell-based or functional assay
# [7] = molecular target: CH0505TF Env, pseudotyped virus produced in 293S GnTI- cells (HIV-1); assay: cell-based or functional assay
# [8] = molecular target: CH0505TF G458C Env, pseudotyped virus produced in 293S GnTI- cells (HIV-1); assay: cell-based or functional assay
# [9] = molecular target: CH0505TF.gly3.276 Env, Env-pseudotyped virus produced in 293T cells (HIV-1); assay: cell-based or functional assay
# [10] = molecular target: CH0505TF G458D Env, pseudotyped virus produced in 293S GnTI- cells (HIV-1); assay: cell-based or functional assay
# [11] = molecular target: CH0505.w4.3 Env, pseudotyped virus produced in 293S GnTI- cells (HIV-1); assay: cell-based or functional assay
# [12] = molecular target: CH0505.w4.3 Env, Env-pseudotyped virus produced in 293T cells (HIV-1); assay: cell-based or functional assay
# [13] = molecular target: CH0505TF G458F Env, pseudotyped virus produced in 293S GnTI- cells (HIV-1); assay: cell-based or functional assay
# [14] = molecular target: CH0505TF.G458Y Env, Env-pseudotyped virus produced in 293T cells (HIV-1); assay: cell-based or functional assay
# [15] = molecular target: CH0505TF.gly3.276 Env, pseudotyped virus produced in 293S GnTI- cells (HIV-1); assay: cell-based or functional assay
# [16] = molecular target: CH0505TF G458K Env, pseudotyped virus produced in 293S GnTI- cells (HIV-1); assay: cell-based or functional assay
# [17] = molecular target: CH0505TF.gly3.461 Env, Env-pseudotyped virus produced in 293T cells (HIV-1); assay: cell-based or functional assay
# [18] = molecular target: CH0505TF.gly4 Env, Env-pseudotyped virus produced in 293T cells (HIV-1); assay: cell-based or functional assay
# [19] = molecular target: HIV-1 Env 426c, Env-pseudotyped virus produced in 293T cells (HIV-1 clade C strain 426c); assay: cell-based or functional assay
# [20] = molecular target: CH0505TF.gly4.G458Y Env, pseudotyped virus produced in 293T cells (HIV-1); assay: cell-based or functional assay
# [21] = molecular target: HIV-1 Env 426c.TM (N276D.N460D.N463D), Env-pseudotyped virus produced in 293T cells (HIV-1 clade C strain 426c); assay: cell-based or functional assay
# [22] = molecular target: CH0505TF.gly3.461 Env, pseudotyped virus produced in 293S GnTI- cells (HIV-1); assay: cell-based or functional assay
# [23] = molecular target: CH0505TF G458Y.N280D Env, pseudotyped virus produced in 293S GnTI- cells (HIV-1); assay: cell-based or functional assay
# [24] = molecular target: CH0505TF.gly3.197 Env, pseudotyped virus produced in 293S GnTI- cells (HIV-1); assay: cell-based or functional assay
# [25] = molecular target: CH0505TF.gly3.197 Env, Env-pseudotyped virus produced in 293T cells (HIV-1); assay: cell-based or functional assay
# [26] = molecular target: CH0505TF Env, Env-pseudotyped virus produced in 293T cells (HIV-1); assay: cell-based or functional assay
# [27] = molecular target: HIV-1 Env 426c.TM4 (S278R.G471S.N460D.N463D), Env-pseudotyped virus produced in 293T cells (HIV-1 clade C strain 426c); assay: cell-based or functional assay
# [28] = molecular target: CH0505TF G458L Env, pseudotyped virus produced in 293S GnTI- cells (HIV-1); assay: cell-based or functional assay
# [29] = molecular target: HIV-1 Env 426c.TM4 (S278R.G471S.N460D.N463D), Env-pseudotyped virus produced in 293S GnTI- cells (Man5-enriched) (HIV-1 clade C strain 426c); assay: cell-based or functional assay
# [30] = molecular target: CH0505TF G458S Env, pseudotyped virus produced in 293S GnTI- cells (HIV-1); assay: cell-based or functional assay
# [31] = molecular target: CH0505TF G458E Env, pseudotyped virus produced in 293S GnTI- cells (HIV-1); assay: cell-based or functional assay
# [32] = molecular target: CH0505TF G458W Env, pseudotyped virus produced in 293S GnTI- cells (HIV-1); assay: cell-based or functional assay
substance,measurement,setting,value
CH103 Fab,Fabs bound per trimer (Fab per trimer),[1],3
CH235 UCA2 (antibody),IC50 (µg/ml) in TZM-bl,[2],0.16 µg/mL
same,IC50 (µg/ml) in TZM-bl cells,[2],0.2 µg/mL
same,IC50 (µg/ml) in TZM-bl cells,[3],> 10 µg/mL
same,IC50 (µg/ml) in TZM-bl,[4],> 50 µg/mL
same,IC50 (µg/ml) in TZM-bl cells,[5],0.916 µg/mL
same,IC50 (µg/ml) in TZM-bl,[6],> 50 µg/mL
same,IC50 (µg/ml) in TZM-bl,[7],> 50 µg/mL
same,IC50 (µg/ml) in TZM-bl cells,[8],0.391 µg/mL
same,IC50 (µg/ml) in TZM-bl,[9],> 50 µg/mL
same,IC50 (µg/ml) in TZM-bl cells,[10],> 10 µg/mL
same,IC50 (µg/ml) in TZM-bl,[11],> 25 µg/mL
same,IC50 (µg/ml) in TZM-bl,[12],> 25 µg/mL
same,IC50 (µg/ml) in TZM-bl cells,[13],0.746 µg/mL
same,IC50 (µg/ml) in TZM-bl,[14],> 25 µg/mL
same,IC50 (µg/ml) in TZM-bl,[15],> 50 µg/mL
same,IC50 (µg/ml) in TZM-bl cells,[16],> 10 µg/mL
same,IC50 (µg/ml) in TZM-bl,[17],> 50 µg/mL
same,IC50 (µg/ml) in TZM-bl,[18],> 50 µg/mL
same,IC50 (µg/ml) in TZM-bl,[19],> 50 µg/mL
same,IC50 (µg/ml) in TZM-bl cells,[20],> 10 µg/mL
same,IC50 (µg/ml) in TZM-bl,[21],> 50 µg/mL
same,IC50 (µg/ml) in TZM-bl,[22],> 50 µg/mL
same,IC50 (µg/ml) in TZM-bl cells,[23],> 10 µg/mL
same,IC50 (µg/ml) in TZM-bl,[24],> 50 µg/mL
same,IC50 (µg/ml) in TZM-bl,[25],> 50 µg/mL
same,IC50 (µg/ml) in TZM-bl,[26],> 50 µg/mL
same,IC50 (µg/ml) in TZM-bl,[27],> 25 µg/mL
same,IC50 (µg/ml) in TZM-bl cells,[28],0.555 µg/mL
same,IC50 (µg/ml) in TZM-bl,[29],> 25 µg/mL
same,IC50 (µg/ml) in TZM-bl cells,[30],> 10 µg/mL
same,IC50 (µg/ml) in TZM-bl cells,[31],> 10 µg/mL
same,IC50 (µg/ml) in TZM-bl cells,[32],1.07 µg/mL
